This note sets out measurements from patent publication US8524668.

The target of the experiment is TLR2/TLR6 heterodimer. As to the kind of experiment: cell-based or functional assay.

CBLB613 (peptide) gave an NF-κB activation of 200.
In turn, CBLB617 (peptide) came in with an NF-κB activation of 100.
